Source: PMC4587089, “Molecular cloning of AtRS4, a seed specific multifunctional RFO synthase/galactosylhydrolase in Arabidopsis thaliana” (Frontiers in Plant Science, 2015)

Legend:
Assay type in all cases: biochemical, Arabidopsis thaliana
[1] = substrate: OC[C@H]1O[C@H](OC[C@H]2O[C@H](O[C@]3(CO)O[C@H](CO)[C@@H](O)[C@@H]3O)[C@H](O)[C@@H](O)[C@@H]2O)[C@H](O)[C@@H](O)[C@H]1O; assay: HPAEC-PAD, stachyose formation; settings: stachyose synthase reaction, galactosyl acceptor, co-substrate galactinol (standard assay 100 μM), 25 mM K-phosphate pH 7, 25°C, 60 min
[2] = substrate: OC[C@H]1O[C@H](O[C@@H]2[C@@H](O)[C@H](O)[C@@H](O)[C@H](O)[C@@H]2O)[C@H](O)[C@@H](O)[C@H]1O; assay: HPAEC-PAD, stachyose formation; settings: stachyose synthase reaction, galactosyl donor, co-substrate raffinose (standard assay 400 μM), range 50 to 1,200 μM, 25 mM K-phosphate pH 7, 25°C, 60 min
[3] = substrate: OC[C@H]1O[C@H](OC[C@H]2O[C@H](OC[C@H]3O[C@H](O[C@]4(CO)O[C@H](CO)[C@@H](O)[C@@H]4O)[C@H](O)[C@@H](O)[C@@H]3O)[C@H](O)[C@@H](O)[C@H]2O)[C@H](O)[C@@H](O)[C@H]1O; assay: HPAEC-PAD, raffinose formation; settings: galactosylhydrolase reaction, stachyose alone, range 50 to 1,200 μM, 25 mM K-phosphate pH 7, 25°C, 60 min

B1: AtRS4 (AtSTS, AtStaS, At4g01970) (Arabidopsis thaliana) (protein)
chain: MAPLHESLSSINDVIESKPLFVPITKPILQPNSFNLSEGSLCAKDSTPILFDVPQNVTFTPFSSHSISTDAPLPILLRVQANAHKGGFLGFTKESPSDRLTNSLGRFEDREFLSLFRFKMWWSTAWIGKSGSDLQAETQWVMLKIPEIDSYVAIIPTIEGAFRASLTPGEKGNVLICAESGSTKVKESSFKSIAYIHICDNPYNLMKEAFSALRVHMNTFKLLEEKKLPKIVDKFGWCTWDACYLTVDPATIWTGVKEFEDGGVCPKFVIIDDGWQSINFDGDELDKDAENLVLGGEQMTARLTSFKECKKFRNYKGGSFITSDASHFNPLKPKMLIYKATERIQAIILRRKLVKESGEQDLTELDEKIKILSEELNAMFDEVEKEESLGSDDVSGSGMAAFTKDLRLRFKSLDDIYVWHALCGAWNGVRPETMMDLKAKVAPFELSPSLGATMADLAVDKVVEAGIGLVHPSKAHEFYDSMHSYLASVGVTGAKIDVFQTLESLAEEHGGRVELAKAYYDGLTESMIKNFNGTDVIASMQQCNEFFFLATKQISIGRVGDDFWWQDPYGDPQGVYWLQGVHMIHCSYNSIWMGQMIQPDWDMFQSDHVCAEYHAASRAICGGPVYLSDHLGKASHNFDLIKKLAFFDGTIPRCVHYALPTRDSLFKNPLFDKESILKIFNFNKFGGVIGTFNCQGAGWSPEEHRFKGYKECYTTVSGTVHVSDIEWDQNPEAAGSQVTYTGDYLVYKQQSEEILFMNSKSEAMKITLEPSAFDLLSFVPVTELVSSGVRFAPLGLINMFNCVGTVQDMKVTGDNSIRVDVKGEGRFMAYSSSAPVKCYLNDKEAEFKWEEETGKLSFFVPWVEESGGISHLSFTF
With B1 the Km [1] was 259.2 ± 21.15 µM, the Km [2] was 1,170 ± 246.8 μM and the Km [3] was 1,059 ± 269.3 μM.
